Measured values from a protein production outcome set (Wang et al. 2014).

Assay: label from the status in PepcDB records

Sequence	protein production
MIKNDGKMMRVRIAKERSDLCDLTAAAIKATYNTRNPCEVERCIDVLNHLKSLSLSVKDIRLSESIVKLETLRSHRNPRIRKEAQALFHSWLKTFYAHGSDNSFTAALTKDRLKMKKHVLKMCSELKKKEEPGTMARQVTAFSVLKNKEDERSQTTVEAVESKTTIKLSELNRKEDQRSLTRETEKNKARNSFLALKQKEDHRSETCVEKYFKKETKTNLKQLNMKTRRVSLEDVTTKKPHEDGSLIKKTKTEKELKKKKVDEMVKLFEAAKKAADVANAKGVLSGKPEVSRCIDALSLLMKINITPKPKEPRRMMDKLEGLTKHKDRKICHVASALLHLWRQRIREQERKKSVTKASSKTRKLSYVKIIWLEQIKVSCGFKRF	failed
MIKNNIKHTWYFGHPQQLVWDYLTKPELLSQWLMESDFQPVAGHTFMFNTKPKVKVGFDGLIYCQVLKVQPDHELEHHHHHH	not failed
MIKQDVICYEKEDVVKRNNINITGGGEKTVLLAHGFGCDQNMWRFMLPELEKQFTVIVFDYVGSGQSDLESFSTKRYSSLEGYAKDVEEILVALDLVNVSIIGHSVSSIIAGIASTHVGDRISDITMICPSPCFMNFPPDYVGGFERDDLEELINLMDKNYIGWANYLAPLVMGASHSSELIGELSGSFCTTDPIVAKTFAKATFFSDYRSLLEDISTPALIFQSAKDSLASPEVGQYMAENIPNSQLELIQAEGHCLHMTDAGLITPLLIHFIQNNQTRA	not failed
MIKTSPPMNKLKLNIALSAFFFALVGCQSMPNDPVDIKADLDASIKETKRLNGPKALTQVPNSVQQELMLNNMDQAKQGMLAEKRLEVSATEVDAKDFFQAIVRGSRYNVVIHPDVTGQISLSLNNVTLSEALTVVEDVYGYEIIRRGNVVKVFPPGIRTETIALNYLFLKRFGSSSTTINSGGVSENDPNSGNSSNGNSSNSNNSNSGSNNNQSGNNGSSNQNSGINLYTENESNFWDELKESLTAFVGTGEGRSVIVSPQAGLVTVRALPQELTAVKKFITATESHLHRQVIIEAKIMEVTLNDDFQQGIKWNKVLDQVGSADIIYSTTGNVVGNVISNTIGGVNSINFSKQTSGSDFSGVIELLQTQGNVQVLSSPRITATNNQKAVIKVGEDEYFVTEVSSTTTTGTSTTTTPEVELTPFFSGIALDVTPQISKDGSVILHVHPSVTITEEQSKTIKIGDTTLVLPLAQSSVRESDTIIRANSGEVVVIGGLIETYNIDIESKTPILGDIPYLGELFKNKSQKSQKRELVIMLKPIVVGQDTWKNQLQDARSLLTKWFPEEVDACELSNDGTLTQECQAQCADAEYATEHGVCQMAAQNAASNDN	failed
MIKVLDQNTINKIAAGEVIEKPSSVIKELVENSIDSGATAITVEVKGSGLSFLRVTDNGSGIKKDEVKLAFLRHATSKLVTVEDLLSISSLGFRGEALASIASVAQVEMITKTADDVTGLRYQIHGGREISSEEIGAPGGTTIIVRNLFYNTPARKKFMKTDLTEISYIYDLMCRICMSHPKISFKFISNGTDKLFTSGNGKLRDIIYHIYGRDITSNLLEINAENDYMKISGYIARPCISRGNRSFEGYYVNHRYIKSAVLTKAIEDAFRTFVMIHKFPFTEINFQVRPDLLDVNVHPTKMELKFANSQDIYSFTYNAIRETLLFKELIPDVAPGKDSKPETYKQRNVGDAPEAFENKRREALVGPVAQAKAAPTHMVTDNSLVKSENAPVLDQRQMKPERASTSESQARPEGTSTALQQPLKPDNIPAPVRPIIDVIDETKDTNTSAEKKSDNNTYEQPQKSGYSYSGRHQEIPGSKVAESKASYMAVDDRKYVQQNMFQEKFLTKEARAKHRLIGQLFKTYWLIEYDGKFFIMDQHAAHEKVKYEELMENYKNKKIYSQYLMPPAVVTLSATEIEFLHENMETFEALGYQIENFGGREFKLNAVPDNLFGLDGRELFIDFIADASSSAKKVTIDVFIHKLSTMACKAAIKGNTEISFKEADALIDQLLKLENPYTCPHGRPTVISMTEAEIEKKFKRIV	failed
MIKVLIFFGIILLGLCISPWIVGNTGYVYIAAGDYQLETSLAFGIIMLIVFYALFQVLEWLVITVINLLLRSRFIPHQWRRRSAKKHTLMGALAIAEEDWPAAERAMIKGADNGELPALNLLAAARAAQHQNKTAERDQYLARAETQPLAANAVATTRTRYLLKQGEFTLARAELDKLAPTSKSKAPVLKLALELYRAQQDWEALKLLLPILKKRQILDDIQLNSLSVETHSALLQTASLKGEDALEQCWQWLSRDERNQSEFLAIYTMGLCRFNRKEQAIKLLSKKLRSSPESALLEVIPQIVTAHDTDIRKQLLKHEITHENNADYQRCLALLYQQTRDMKEAKTCWQNVCRIAPTKDSWLSLARIQEQLGEQGHANQSYRQAVTL	failed
MIKVNVMYPYTEGARFDHAYYCDRHMPMVKARLGSACAYYTVEKGLAGSASGAPPAFVAMCAFICDSAENFYAAMYYHGAEILGDIANYTDIAPVLQISEVVVERSDR	not failed
MILAVLFANSVGNVLIERFNGVPAEERLHWRSFLVKLGADNLKGVKNEELLVACHKSVYIVYTMLGDVSIFLVGKDEYDELALAETIYIITAAVKDVCGKPPTERVFLDKYGRICLCLDEIVWNGLLENTDKDRIKRLIRLKPPSEV	failed
MILCYGDNNIMMDIYKEIKEEMKKVYLSRDCCFVGYSGGKDSSAMLTLLWDAIAELPLEERTNPIHILTSEVGVETPAMTAYISRTLQKIQEKANEQNLPFVVHGVKPLMKESYWYKVIGRGVLPPSGNSRLRWCTDSLKVKPMQRKMKEILIASQTTTAVECFDEYDGVLMLAVRNEESARRRHSIQKHEISNDSLFSRHNDMKNILCFNPVKFLTGDEVWMLLLDRGI	failed
MILFDGMYSLGGVILSLLALMGSIYINKKDYEKYPFGKKMIEPLIVIIKSLAIFIMCIYSLTGSIKDLINGGNEVQYGYALIYALISTLGCGIAYFFLKKKGKAINSSLINIESSQWLMDALLSMGVLVGFLIANIIKHTEFIWFNRYLDPLMVIICSSVFIKMPIKSFGDGLKELLEFKADDSITLEIDKLVEGIEREYNFEDTITRVSKTGNDLRIEIDFIYNEESNIKALDEMDSLREKIFNSLSHINYEKWLNVSFTKDKKWAI	failed
MILGEIMEVLAFKNQSLIDHVNDMVKYWERIKYRYLKTIKRALEALNIKLDIEKVDEFMKILIKLHDIGKASKIYQRAIINDQEKLMGFRHELVSAYYTYHILLKKFGDKNLAFIGALTVMLHHEPIIMGQIRNLKKKELTAEVVLDKLKKFDGMIEDFEDLIKKLIGYSIGDIIKNDSNKDDIIRFVIEMSVRARHTPNSEKLRFIVGTLLLPLVMCDYKGAESREGKAPKFAEVLEVESYVI	not failed
MILINKRAEKQDYQTILAIWEKSVIVTHDFLTAEDRQFYKEQIPLFLDNVELFLWFAGEEVIGFSGTSERELDMLFLDPVATGNGYGSQILGWLIENKRINLVDVNEQNENATRFYLKHGFVVSSRSDLDGFGKPYPILQLQLKERVNGV	not failed
MILINLFITFLKIGLLNFGGGNGIAAIINNEIINNKHWITKEEFVNMITISRITPGPIATNIATYVGMKTAGIAGAIIATVALITAPIIIMIIILLILHKIGFLNYCLENLKPIIVALWIITIIILLENTYLKIENNKTELLKTLAIVGINFFILFFYNKISPALVIILSGFFYTLI	failed
MILQDARIDVPYTVVSINLPEDSVRHLSNLGLKVGSRLELISKTKSSAIVMLKSSRLAFDDSILSKIDVSESQETVETLPLSELEVGQFAYIDNIFAVNEAKRRLMDMGLTRHTKIYLRKVAPLGDPIEISLRGYELTLRKSEAQMISVVKIDNQEEKLEHHHHHH	not failed
MILSQQKYNYLAKVSDSNGVISALAFDQRGALKCLMAQYQMKEPTVAQMEELKVLVSEELTPYASSILLDPEYGLPAAQARDREAGLLLAYEKTGYDANTTSRLPDCLVDWSIKRLKEAGADAVKFLLYYDVDGDPQVNVQKQAYIERIGSECQAEDIPFFLEILTYDETISNNSSVEFAKVKVHKVNDAMKVFSAERFGIDVLKVEVPVNMVYVEGFAEGEVVYSKEEAAQAFREQEASTDLPYIYLSAGVSAELFQETLVFAHKAGAKFNGVLCGRATWAGSVQVYMEEGKEAARQWLRTSGLQNINELNKVLKTTASPWTEKVSVG	not failed
MIMINKTKRLMVSRQVKIPRKTYFWGPTPNPGMHPKDQSVTLLSIIRDYLKLSDKEREAARILANGLVKVDGKTVREKKFAVGFMDVIEINGESYRVVYNDQGALVLMKETKERASMKLLKVRSKVIAPGNRIQLGTHDGRTFITDDKSKKVGDVWAVSVPDMKISEIIKMQPGNKAYITAGSHVNQTGTISKIEAKEGSSANLVHFQEGFSTIKDHVFMIGSSKFSFVLSPEEVIPLEHHHHHH	not failed
MIMMENDRISDFFIVAFIFSWVLWIPVAMVSAGFSFPQPLQAFLESPYNPAAFGPTLAAVLLSYRYGGRDELLALLRKGVNYDFHRIWWPVILLFFPVLTAVALYLGVLWGDPQPYLYWTSQPLMVIMVFIYIFFLGGPLQEEFGWRGYALPRLQRRYSPIYAALIIGFIWGLWHIPLFFIGGSIQSQVPFWSFMILIISASVIYTWVYNSTGSILATMIIHTTGNLSYFLFPVQGTLAGGIFLMILNVAAALAVMLFAGSELKTDFGGQGH	failed
MIMNKIKKILKFCTLKKYDTSSALGREQERYRIISLSVISSLISKILSLLSLILTVSLTLPYLGQERFGVWMTITSLGAALTFLDLGIGNALTNRIAHSFACGKNLKMSRQISGGLTLLAGLSFVITAICYITSGMIDWQLVIKGINENVYAELQHSIKVFVIIFGLGIYSNGVQKVYMGIQKAYISNIVNAIFILLSIITLVISSKLHAGLPVLIVSTLGIQYISGIYLTINLIIKRLIKFTKVNIHAKREAPYLILNGFFFFILQLGTLATWSGDNFIISITLGVTYVAVFSITQRLFQISTVPLTIYNIPLWAAYADAHARNDTQFIKKTLRTSLKIVGISSFLLAFILVVFGSEVVNIWTEGKIQVPRTFIIAYALWSVIDAFSNTFASFLNGLNIVKQQMLAVVTLILIAIPAKYIIVSHFGLTVMLYCFIFIYIVNYFIWYKCSFKKHIDRQLNIRG	failed
MIMRKFASRVKDIQLSEIRKIFEVADEDTINLGIGEPDFSVPDHVREAVKDAVDEGLTHYTSNMGMEELREAIADKLKSENRVHAEPESIIVTVGASEAIFMCTQALLDIGDHALIPDPGFLSYDACVRLSGAVSIPVPLSMDEGFSMSPERVESLITQDTRVIIMNSPSNPTGSVMGKDDVKGIAEIAEDNDLIIISDEIYEKIIYDGKHYSPAQFTDNALIVNGFSKTYAMTGLRIGYVAGCEDIIEELLKVHQYNTACAPSISQYAALAAIRGPQNCVKDMVDEFRRRRDLMFRSLTDMGLECVLPGGAFYMFPYAGDSEEFTKLSLEAGVAVVPGSAFGNEGKGYIRMSYATSYELIEEAMERLKTVCGV	failed
MINARGETMARFTVVIPYYQKQHGVLGRALASVFAQTYQDFDLVIVDDESPYPIDQELAEISQEQKDRIVVIKQANAGPGGARNTGLDHVPDGTDYVAFLDSDDMWTPDHLRNAAFALNTYGGECYWASMQASDEFYYHFAISELEKNEGAARLSEKPLVIELPDLASVMLRNWSFLHLSCMVIGRPLFEKIRFDPALRLAAEDVLFFCDSILASKRTLLCDDAGAMRGMGVNIFHSIDNTSPEFLRQQFNTWVALDTLEGRFSRRPADVASIASYKNTARKQALWSQAGNLKRRRAPQFGLLFKWAMRDPALLRAAFELGAGKIVRSRLEHHHHHH	failed
MINEQRLLNTFLELVQIDSETGNESTIQPILKEKFIALGLDVKEDEAAKHPKLGANNLVCTMNSTIEEGEVPKLYLTSHMDTVVPAINVKPIVKDDGYIYSDGTTILGADDKAGLAAMLEVLQVIKEQQIPHGQIQFVITVGEESGLIGAKELNSELLDADFGYAIDASADVGTTVVGAPTQMLISAKIIGKTAHASTPKEGVSAINIAAKAISRMKLGQVDEITTANIGKFHGGSATNIVADEVILEAEARSHDPERIKTQVKHMTDVFETTASELGGKAEVTVEQSYPGFKINDNEAVVKIAQESARNLGLSANTIISGGGSDGSIINTFGIPSVILGVGYEKIHTTNERMPIKSLNLLASQVLEIIKIVARQSK	not failed
